Values quoted from earlier work, collected in publication PMC5481609.

Target: IL-23 p19 (Homo sapiens) (UniProt Q9NPF7)
Sequence (Q9NPF7 20-189, chain 1 of 2): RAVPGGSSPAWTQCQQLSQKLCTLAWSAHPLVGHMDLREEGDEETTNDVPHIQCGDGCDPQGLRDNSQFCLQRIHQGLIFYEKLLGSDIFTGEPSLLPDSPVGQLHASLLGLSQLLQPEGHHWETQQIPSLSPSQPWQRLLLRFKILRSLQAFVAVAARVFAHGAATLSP
Sequence (P29460 23-328, chain 2 of 2, further chain): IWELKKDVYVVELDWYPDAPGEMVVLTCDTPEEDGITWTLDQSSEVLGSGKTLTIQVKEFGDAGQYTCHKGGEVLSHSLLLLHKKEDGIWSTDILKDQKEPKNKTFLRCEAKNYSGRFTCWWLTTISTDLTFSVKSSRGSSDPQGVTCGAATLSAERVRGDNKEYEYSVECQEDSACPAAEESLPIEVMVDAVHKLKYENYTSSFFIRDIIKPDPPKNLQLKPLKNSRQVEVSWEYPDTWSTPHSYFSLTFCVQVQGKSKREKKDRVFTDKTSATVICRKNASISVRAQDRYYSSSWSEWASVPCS

Kd: 138 pM
Substance: brazikumab
